Laboratory results as given in PMC4617720, “Antigenic Characterization of the HCMV gH/gL/gO and Pentamer Cell Entry Complexes Reveals Binding Sites for Potently Neutralizing Human Antibodies” (PLoS Pathogens, 2015).

B1: HCMV glycoprotein L (gL) (natural protein)
chain: AAVSVAPTAAEKVPAECPELTRRCLLGEVFEGDKYESWLRPLVNVTGRDGPLSQLIRYRPVTPEAANSVLLDEAFLDTLALLYNNPDQLRALLTLLSSDTAPRWMTVMRGYSECGDGSPAVYTCVDDLCRGYDLTRLSYGRSIFTEHVLGFELVPPSLFNVVVAIRNEATRTNRAVRLPVSTAAAPEGITLFYGLYNAVKEFCLRHQLDPPLLRHLDKYYAGLPPELKQTRVNLPAHSRYGPQAVDAR
notes: source: 293EBNA cells, transfected with individual plasmids encoding each subunit
B2: HCMV UL131A-K27R (natural protein)
chain: QCQRETAERNDYYRVPHYWDACSRALPDQTRYKYVEQLVDLTLNYHYDASHGLDNFDVLKRINVTEVSLLISDFRRQNRRGGTNKRTTFNAAGSLAPHARSLEFSVRLFAN
notes: also called UL131A-K27R mutation; source: 293EBNA cells, transfected with individual plasmids encoding each subunit
B3: HCMV UL130 (natural protein)
chain: SPWSTLTANQNPSPPWSKLTYSKPHDAATFYCPFLYPSPPRSPLQFSGFQRVSTGPECRNETLYLLYNREGQTLVERSSTWVKKVIWYLSGRNQTILQRMPRTASKPSDGNVQISVEDAKIFGAHMVPKQTKLLRFVVNDGTRYQMCVMKLESWAHVFRDYSVSFQVRLTFTEANNQTYTFCTHPNLIV
notes: source: 293EBNA cells, transfected with individual plasmids encoding each subunit; not shown: Strep-tag II, C-terminal, kept

Assays:
Details in all cases: both partners purified
[1] = target: T1, HCMV glycoprotein H (gH), soluble, terminated at amino acid 715 (human cytomegalovirus (HCMV), Merlin …, UniProt Q6SW67 24-715); experiment: non-reducing SDS-PAGE with western blot; purified Pentamer, non-boiled and non-reduced (-/-), blotted with rabbit polyclonal anti-Pentamer antibody
T1 construct: source: 293EBNA cells, transfected with individual plasmids encoding each subunit
T1 sequence: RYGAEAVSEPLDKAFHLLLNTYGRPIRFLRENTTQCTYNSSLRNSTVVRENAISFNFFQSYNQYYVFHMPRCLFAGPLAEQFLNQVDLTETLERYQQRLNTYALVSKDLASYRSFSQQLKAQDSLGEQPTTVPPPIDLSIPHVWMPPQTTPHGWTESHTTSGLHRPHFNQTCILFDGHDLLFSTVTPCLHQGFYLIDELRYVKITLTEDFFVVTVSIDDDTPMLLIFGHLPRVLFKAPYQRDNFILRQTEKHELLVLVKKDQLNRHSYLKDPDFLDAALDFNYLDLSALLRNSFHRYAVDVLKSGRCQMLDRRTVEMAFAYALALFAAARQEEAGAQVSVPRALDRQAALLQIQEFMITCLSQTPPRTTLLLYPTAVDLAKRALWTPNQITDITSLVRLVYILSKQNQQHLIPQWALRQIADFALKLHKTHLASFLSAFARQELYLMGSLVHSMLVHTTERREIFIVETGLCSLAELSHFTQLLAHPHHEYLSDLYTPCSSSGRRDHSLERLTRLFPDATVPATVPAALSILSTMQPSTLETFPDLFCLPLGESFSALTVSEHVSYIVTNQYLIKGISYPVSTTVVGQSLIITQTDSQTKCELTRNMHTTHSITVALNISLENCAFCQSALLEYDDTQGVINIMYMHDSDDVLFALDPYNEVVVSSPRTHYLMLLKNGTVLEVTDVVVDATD

HCMV UL130 = target: B3; experiment: cross-linking; purified unbound Pentamer (with UL131A-K27R), 36 pmol, 600-fold excess of DSSG-d0/d6 (links lysines up to 25 Å apart), 10 mM HEPES pH 7.5, 300 mM NaCl, RT, 30 min; cross-linked peptides identified by LC-MS/MS (xQuest)
[2] = target: T1, HCMV glycoprotein H (gH), soluble, …; experiment: as above

Question: Does B1 bind [1]?
Answer: binds

Question: Does B2 bind (HCMV UL130)?
Answer: binds

Question: Does B3 bind [2]?
Answer: binds
